Consider 47 sequences from the NTF2 design screens of Basanta et al. (2020).

The data set is described as follows: protease stability score; higher = more stable; yeast display proteolysis, trypsin and chymotrypsin.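 Also: log10 excess protease needed over predicted unfolded state with 0 meaning unfolded.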
With “DEKEHATEWLEDWQQQLRTGDEKSVANLFDPNARLNVGDKEVHGREDFEKEQKKIREEADHVDVEIVDLKTSPGHIQMFFNLRQTHNGQRQSHREVMVLRLQGDEVRVVKVEHN”, the protease stability score is -0.056. As for “DERENKKHAEQLARVFQTGDHDQLRKMMPPDAKAQVGDKEYQGRDSVLHDIKRFLRQADSITIQSVTVQGNTLNIHIQLDINGKDFQAVIEVEMHNGKVVRIVIKES”, the figure is -0.044; as for “DKKANSMAHDLIRNRNSNNPERLKEMMDPNVEIVIGDKTVNGTHEYERQQRQRDRQIQIDVKSVTFKDRPNHAQVRFDAVFHHNGQPDRRVQEVIIRQRNGKVKHIHVQDTE”, -0.365. With “DEKQAKELADEYIKAFEEGDPDKHQELVDKDAQVNYGDKTLHGREEFRKLVEELRRQADHISVHNVDYQGNKVVVHYVVDVNGHKVELSYTVQYHDGRMKQASVSYRSEDLKREQEQ” the figure was 0.384; with “DEQDLNSVKENLKAIETNNPKRVKELLDKDARAQYGDKEVHGRDEIADQQRKEREDIDIRIDWKRMNIDNGRIHMEFEVQYNFNGKPLTNKVTMRNEAHNGSIKAMFWQLSEDQQRELDS”, -0.374; with “DDDKVRESVNNMLHAMQNGDHDRFRKMADENVRIEVGDKEYKGREKAAEHIKEVVDRVDHIQVESVKVHNGRARANLNMVVNGHSARATLNVNANNGRVVVVEMDPDQIRKAES”, -0.629. With “DDHREEQMNRVAETGNFKHLASQLDKDATAFYGDKTVEGREHIQENLNRLHSHIDHIEYKKVEVKNGKVDVDFTAVINGTTFRAQMRLVVHNGRIKTISMRARDEKDKKLIHEWLS” the figure was 0.83; with “DEEKNFREWLHKFNEANESNDEEELKHQMDKNAHVTYGDKTIHGRDTVAEHLANKNRRADNIEFRIRHVSVENGQLQFRIDWNLRHNGENDRFEIKVRADVHNGNVQLQEASVD”, 0.134. Consider “DEEEVKRQLDQVAKALLHGDEKQAKDLADPNVSANYGDKKLHGRENFSKWVKKFRHQIDHLELKDIRVNGDRLVIEVQANVNGQDVDVVFNLKLHNGKVKHMSVEYRDEQAKRELKK”, for which the protease stability score amounted to 0.49. Consider “DDREMKKFAEQYARNLTRNDEDSLKDLFDENAEVTIGDKQVRGQEKIKSLLHQLHQQVDHFDLRRVDAQGDDIKIVVLWNHNGKHLNVTISMRVHNGRIKSATDHVRSEDDERKFKR”, for which the protease stability score came out at 0.569. Consider “DSDLVRKMKKFEENRRTGNEHEVDKMIDPNAKLQVGDKTIHGRERQRDYMRELKNSARLDLKIDRVHDQPGRVVATFILKVNINGRPDTIRVKLVIQWHNGEIQRAELRVPEEWMDRFKQ”, for which the protease stability score came out at 0.642. With “DDEVNHNFEEMLKARESGDPDRLKELFRDDVRMQVGDKQVTGREKLAEHLVENMKHSQRTIRITDIKAHNGRLEVRLKFTEEHNGRPKTAEADVKAVVHNGKFVSMHVDQKR” the figure was -0.523; with “DSQKERDLVEHFLRNFRTGDPDKLKTMADPNAHMRVGDKNVHGREDLSRWVQEVRDRADHIDIDTFSVSNGRATATIVMRVDGKEVRFEVVITMENGKIKSMEQQDR”, 0.726; with “DEKQLVEVIREVIKALQQGHRDKVKKLGGPNVEVQAADYRNKGPEAILHMAEIVQRIGDEFQYRRTEQKGGTVTTTVEVHVGGHTVRYEVNAEAEGGKLKYWQADDDDKFIQHVKES”, 0.725. As for “DDENRKRAEEWLQAVQEGNEHQVMELADPNVRFVIGDKTLHGREQLSEWVKRVHDQMRFSVEIKHVRVHGDKVLITVRHTANVNGKPFDDTLIIKVVINNGKFQRIELRVDPEKLKHLKT”, the figure is 1.01; as for “DEHEMKKVADQIVDILRTGDQDRFRDLADPNVRVSVGDKTVHGRHQAQQQVKRLKDQVDHVQLKDMKIHGNTVVVKAHVEINGNTTDRDVKFELHNGRVSHLTIDPEAQKVMDT”, 0.273. “DEDAYRKLDTFKKVEEKGDTDRLRKLADPNVEIQVGDRQIRGMHHFAKDVHDKKRHIDIDVHIDEYDVDGNKIQIHAHNKQHVNGKPFNFTVVMWVRIHNGSIKKMKYRIDPDQLRKIRR” came in with a protease stability score of 0.227.

For the sequence “DEDKVERLKHMWKVVEEGDEDKLREQFDKDASVTVGDKVLTGRENLARHWKRIRDELRFSMTMEKVEVHNGVVDIRVTATEDNNGRPQHKVADVRVDMHNGRIKVLEVDETK”, the protease stability score is 0.154. Turning to “DEEKLKRIWQEIMDVWRTNNEDRMTNLFDENATVVVGDETYRGREDVNKALHEFNKRVDNINVTRLDVDGDKANLKAELTYNGRTIDITLRITLRNGRIEEMTVDPEVMKTARS”, the protease stability score was found to be 0.71. With “DEDRLREQATNFIEAMQTGDTKRVDEQIDKDAQLVVGEKKYEGREQISTFVKEMHHQFDHVRLQRVTVSGNKVLLDVVMDFNGKDLRINIVIHMNNGKISQVQVDYTNPEDAKTARG” the figure was 0.587; with “DERRQQEVLKRFIDALQTGDPQKLKELADPNAQVNVGDKTFHGRDELVRQVEDEKRRIDEFHVVSIENHGDHVTARFRKESDGHQTEFVMKAYVHNGKVQSVKIDSS”, 0.201.

In the case of “DEKKIKDLLLKLIEMYVSGNKEEVKKVGKDDVELHAGNQTYHGYEQMAKMAEKLKRYGVKLQITDAKVEGDKLTAKVDFHYGGETQKLEFVVQADGGKVDRMKIELSEEVVKVARKG”, the protease stability score was determined as 0.377. With “DEEEDKKMLDNINTIWERGNPDEIEKLIDPNARVQVGDKTLHGREQIKHFLKRLHERIDHFEYQSVSAHNGRMRARVRFRVNGVHVRMEIDATYNNGKVKKMEVRVTDEKHLERARK” the figure was 0.741. In turn, “EEEQLKILQELRKALQDNDSERMKELFDEDVKVQVGDKTITGREKVVDDLRRKAEEQRIQYVTMSARAENGHITVRLQFVNTHNGRPHRRERKLDITLHNGKFKSARYDNDG” returned a protease stability score of 0.842. Consider “DEEQMDRFKDLKHALDEGDEDRLKNLVDPNARMRYGDKEVTGMEDIARQQVQRVNEINVEVDRMHVQVHNGTLEIHATVTENHNGKPKKYTFRATARAENGRFVHRVQETRG”, for which the protease stability score is -0.101.

For “EKEQKERLEEAQHARESGDTERLKDLFDENVQVEVGDKRVNGMEKFVKDEVKKQRDLRISVTYTEMRNDPNHVDITVEVVEDKNGEPQRRVLEINIEYENGRARMMRVRRVQ”, the protease stability score amounted to 1.1. As for “DDEIRRQVHRYLRALQRNDEKLASDLLDPNAKFVYGDKTVHGREQHKKELRKMKDQWEFSVDVKKVKVQGNKIKVTADIRVDVNGRPMSHRYVVIFHAHNGKIKNAEFRMDEKYYRDVKR”, the figure is 0.208; as for “DEEVQRQLENNWQKMREGDEEHLTRHVDENARFDVGDKRVRGMENYVKDVRREREEMHVNMTYDDMHVQGNEIRFTVRARWDVNGKPYDDNFDHKYEYHNGRLKSAHVRVDEDFERKRRK”, -0.089; as for “DEEKIKQLLQKMIQYYVSGNKDHLKQLGKDDVQLHAADQTYHGLDQLLKVAEQFKKYGVKLEVKDVKVDGNTIHADVEVTMGGTQWTFKVTAEADGGKVDKVQFDVSEEAKKRIQKG”, 0.959.

As to “DEEKVKLASEIWKAFDRNNPDRVEELIDPNARFQYGDKKYHGMEQAKNHIKKILDDANIHIKSISMTDHNGKVRAEVEFVRNHNGKPQTDRVEMSAEFTNGRVTHFEVTEVP”, the protease stability score amounted to 0.871. With “DDEETAKRHQREWQKNLEFNDEKSIQELVDPNARWQIGDKEVHGREEWARQLRRLREDVDHVQIHVKHVEVSNGQYNLNILIKYNINGETHKIRLVYVAQKNNGRVLVRSVEHK” the figure was 0.655; with “DEEAAKLMRKMQQAVRSNNPEEVQRMMDPNASAKYGDKEVHGREEIATHLVKETRRMHIHYDVEHITVDNGRADVTADVQQEHNGKPERRKYKVHIEVRGDKLVHLRFETRK”, 0.06. In the case of “DEDDLQRKVERINSALQTNDEDEFVRQLDEDAKISVGDKTVHGQEKAREWVQDLRRTVDHIRVDHVKVHNGRAHVTMKAVVNGKNVEITMQMTLHNGKVKEMRIDPEDVEKLEG”, the protease stability score stood at 0.807. As for “DEDEERQFAKDLMRAMEKNDPKLLVKLADKDVSINYGEKQVHGKRQAEQLMRDLHKRVDDIKVRHVSMHNGSLTINLVLNVNGHNENLVAIVRVENGRIKSLTFEHR”, the figure is 0.861. In the case of “DEDQLKVALKAIRAQNNNNPDELLKLLDENVRLQYGDKTVHGREEVKEMIKHWLSHWRWKIDVRRYSVHNGVARIEALVTINVNGKPQTFTVVIHVRAENGRIKEMHYHFDEEDQEKIRS”, the protease stability score came to 1.37.

“DEHIDHMYKEILRLLETGNSEEAQKLLDPNVKVVVGDKRYHGREDYARDMVRRIKEMDVQRDFDHVSVHNGKVDADAKQTTNSNGRPSSNTVRITIVQHNGRIHMIKIDSRQ” registered a protease stability score of 0.041. As for “DEKDQEQILRELAEIMKSGDEHEMENLADENVKVKIGDKTLKGKEQFRHQLKRERDRVDHLKILDMEAQGDRFIIRWQEEFNGQTRRMQVDIHIKNGKIKSAEYRHQ”, the figure is 0.579; as for “DEKARKILKKMMHALEKGDEDKVRHLLDPNVKVRIGDKDITGREEVARNIFKTLQSMRVKIDRFHVEAKGDKVRAHQTAKAQHNGQPRRYQATVTARIHNGHFQRIDIQVDK”, 0.944. As for “DEEEAKKIVETVVKAVENGDVEKLKQMIKEGGKYKVINRERHGPEAVEEVIRLLQKAGVEMEFKEVRVEGNTATTRVEYRHGDKEAEVKVTATMQGGRIDEVRFKMSEEAQKMVEHG”, the figure is 1.08. For the sequence “DESKQRTFAEELLTAWETGNDDQARKLADPNVRFHIGDKEISGRENFAKWAKEVRDRVDHIRYEHIEIRGEKVRVNVQLEFDGKTERRVIVFNVHDGQVKSMDVKTT”, the protease stability score was determined as 1.34. Consider “DESLADVFRRLLEAYRNGDEQKLRDNVDPNAKFNIGDKRFSGREQFARDMHKERKEIRVSIQLHEYDNQGEDVDFTFQFSAEVNGEPVHDTVRVEVHAHNGKIKRVHMHMSEKFQHQLRG”, for which the protease stability score is -0.027. Consider “DPKKLYKVAIRVVRAAVSGDVEKVVKMYKPDGKLTLGDQELRGREQIKKYADKFYRKGKRFQADHIRVTGNRVEVIMKFTLGGQTVTFQFYIKLKDDQVDEYEFRFNEEAEKMMRTG”, for which the protease stability score stood at 0.276. With “DEERNEKAAHEMLKVFQRGDPDQFRDLIDPNARANVGDKKYHGRENLTHMFKHFVHRADHLEMQHVKVSGETVEIHIRAKINGKTIDFTIRIIVDNGKAREINFDPDMLKRMRG” the figure was 1.23; with “DEKRYKELFETVFKMVINGDEEDVKKIINPNGKYQYGDKEFEGPEVAHELVRVVKEMGAEVKETRYEVNGDTARADFKYINGDQEVTTTAEAVYKGDKMEEARVHISEEVKKVLHQG”, -0.143. Consider “DEERVKQVQKKAFEAVMKGNDDEMRKIGKPNVRYEYIDEKNEGQEAVDVVIQLVKKVGAEAKVRRTEVKGDTVRAIFVYNDGDQTVQTKVEVKYEGDKVKEARVELTDEVQKVLHKG”, for which the protease stability score was -0.027.

“EEEDVKRVEEDLHNGDPDRLRDLMDKDVSVEYGDKTVNGRENAAEIWEHIRRNVDRIRIVSMHVKNGKINFDLTAEVNGTKFQIRVVWELRNGRAKSVKIEVTDEEVKKLLDRLLQ” displayed a protease stability score of 2.04.

“DNETVDEALKAFNKNDERNMMRLADENAEMEIGDTEYHGQEQVQTLLQKLNQQVDHREFHSIETEPNRIRVDYRAVFNGRDIRVHVHLEFENGRLTRVRFDVRDPRQQKHLQDLLK” had a protease stability score of 0.344.
